Values belong to the binder of their own block, whether it stands above or below them.
Columns and labels:
Conditions in all cases: remark: other sources report otherwise
[1] = target: T1, HLA-DR molecule DRB1*0405 (human); assay: radioligand inhibition, purified HLA-DR
T1 chain 1: not shown
T1 chain 2: not shown

[2] = target: T2, HLA-DR molecule DRB1*0401 (human); assay: radioligand inhibition, purified HLA-DR
T2 chain 1: not shown
T2 chain 2: not shown

[3] = target: T3, HLA-DR molecule DRB1*1201 (human); assay: radioligand inhibition, purified HLA-DR
T3 chain 1: not shown
T3 chain 2: not shown

[4] = target: T4, HLA-DR molecule DRB4*0101 (human); assay: radioligand inhibition, purified HLA-DR
T4 chain 1: not shown
T4 chain 2: not shown

[5] = target: T5, HLA-DR molecule DRB1*1302 (human); assay: radioligand inhibition, purified HLA-DR
T5 chain 1: not shown
T5 chain 2: not shown

[6] = target: T6, HLA-DR molecule DRB1*0701 (human); assay: radioligand inhibition, purified HLA-DR
T6 chain 1: not shown
T6 chain 2: not shown

[7] = target: T7, HLA-DR molecule DRB1*0802 (human); assay: radioligand inhibition, purified HLA-DR
T7 chain 1: not shown
T7 chain 2: not shown

[8] = target: T8, HLA-DR molecule DRB1*1101 (human); assay: radioligand inhibition, purified HLA-DR
T8 chain 1: not shown
T8 chain 2: not shown

[9] = target: T9, HLA-DR molecule DRB1*0404 (human); assay: radioligand inhibition, purified HLA-DR
T9 chain 1: not shown
T9 chain 2: not shown

[10] = target: T10, HLA-DR DRB1*0101 (human); assay: radioligand inhibition, purified HLA-DR
T10 chain 1: not shown
T10 chain 2: not shown

[11] = target: T11, HLA-DR DRB1*1201 (human); assay: radioligand inhibition, purified HLA-DR
T11 chain 1: not shown
T11 chain 2: not shown

[12] = target: HLA-DR DRB3*0101 (human); assay: radioligand inhibition, purified HLA-DR
[13] = target: T12, HLA-DR DRB1*0404 (human); assay: radioligand inhibition, purified HLA-DR
T12 chain 1: not shown
T12 chain 2: not shown

[14] = target: T13, HLA-DR DRB4*0101 (human); assay: radioligand inhibition, purified HLA-DR
T13 chain 1: not shown
T13 chain 2: not shown

[15] = target: T14, HLA-DR DRB1*0701 (human); assay: radioligand competition, purified HLA-DR
T14 chain 1: not shown
T14 chain 2: not shown

[16] = target: T15, HLA-DR DRB5*0101 (human); assay: radioligand competition, purified HLA-DR
T15 chain 1: not shown
T15 chain 2: not shown

[17] = target: T16, HLA-DR DRB1*0405 (human); assay: radioligand competition, purified HLA-DR
T16 chain 1: not shown
T16 chain 2: not shown

[18] = target: T12, HLA-DR DRB1*0404 (human); assay: radioligand competition, purified HLA-DR
[19] = target: T13, HLA-DR DRB4*0101 (human); assay: radioligand competition, purified HLA-DR
[20] = target: T17, HLA-DR DRB1*0301 (human); assay: radioligand competition, purified HLA-DR
T17 chain 1: not shown
T17 chain 2: not shown

[21] = target: T18, HLA-DR DRB1*1101 (human); assay: radioligand competition, purified HLA-DR
T18 chain 1: not shown
T18 chain 2: not shown

[22] = target: T10, HLA-DR DRB1*0101 (human); assay: radioligand competition, purified HLA-DR
[23] = target: T11, HLA-DR DRB1*1201 (human); assay: radioligand competition, purified HLA-DR
[24] = target: T19, HLA-DR DRB1*0802 (human); assay: radioligand competition, purified HLA-DR
T19 chain 1: not shown
T19 chain 2: not shown

[25] = target: T20, HLA-DR DRB1*1302 (human); assay: radioligand competition, purified HLA-DR
T20 chain 1: not shown
T20 chain 2: not shown

Binder: HNQVRQVPLQRLRIV [Peptide 9019.0034 (Her2/neu.88)]
IC50 [1]: 1300 nM
IC50 [2]: 840 nM
IC50 [3]: 42 nM
IC50 [4]: 18 nM
IC50 [5]: 270 nM
IC50 [6]: 80 nM
IC50 [7]: 85 nM
IC50 [8]: 21 nM
IC50 [9]: 78 nM

Binder: LLTFWNPPTTAKLTI [CEA.24 (peptide 9019.0105)]
IC50 [21]: 52 nM
IC50 [22]: 6.9 nM
IC50 [23]: 5000 nM
IC50 [15]: 3.7 nM
IC50 [16]: 13 nM
IC50 [18]: 52 nM

Now from value to binder:

IC50 [10]: 2490 nM
IC50 [11]: 1860 nM
IC50 [12]: 18900 nM
IC50 [13]: 3190 nM
IC50 [14]: 5310 nM
Binder: CHLFYNEQQEARGVH [Peptide 9019.0023]

IC50 [15]: 56 nM
IC50 [16]: 4500 nM
IC50 [17]: 41 nM
IC50 [18]: 169 nM
IC50 [19]: 22 nM
IC50 [20]: 80 nM
Binder: FYTLHVIKSDLVNEE [CEA.119 (peptide 9019.0114)]

IC50 [24]: 1400 nM
IC50 [22]: 6.8 nM
IC50 [19]: 91 nM
IC50 [25]: 55 nM
Binder: PPSMVAAGSVVAAVQ [Cyclin D1.199 (peptide 9019.0170)]
